Assay results taken from patent US11918645B2, “Vaccines against hepatitis B virus” (priority 2012, dated 2024).

Assays:
HLA class II alleles = test: ProImmune REVEAL MHC class II binding assay, summary over the seven alleles; parameters: species or system human; conditions: number of class II alleles for which positive binding (score >=15%) was detected
Excerpt: (§1) The highly frequent HLA class II alleles HLA-DR1 (α1*01:01;β1*01:01), HLA-DR15 (α1*01:01;β1*15:01), HLA-DR3 (α1*01:01;β1*03:01), HLA-DR4 (α1*01:01;β1*04:01), HLA-DR11 (α1*01:01;β1*11:01), HLA-DR13 (α1*01:01;β1*13:01), and HLA-DR7 (α1*01:01;β1*07:01) were selected. Each peptide was given a score relative to the positive control peptide, which is a known T-cell epitope. The score of the test peptide is reported quantitatively as a percentage of the signal generated by the positive control peptide, and the peptide is indicated as having a putative pass or fail result. Good binders are considered to be those peptides with scores >=15% of the positive control as defined by Proimmune.

HLA-B*3501 = HLA-B*3501 (Homo sapiens, UniProt P01889, A329T/A93T/A95T/C349S/D201E/D98Y/E176V/E187L/E204Q/E69T/I218V/K202T/L119I/Q94N/R155S/R180L/S121R/S35A/S48A/T118I/V127L/V306I/V36M/Y140S/Y91F); test: ProImmune REVEAL MHC class I binding assay of nonamers; conditions: score as % of positive control peptide
Excerpt: (§2) The number of HLA class I binding registers contained in each peptide may be determined by determining the ability of the peptide to bind to a range of frequently occurring HLA class I molecules. HLA class I binding may be measured using the ProImmune REVEAL® MHC-peptide Binding Assay (ProImmune Ltd, Oxford, UK). The REVEAL™ MHC peptide-binding assay measures the ability of each peptide to stabilize the ternary MHC-peptide complex for […], HLA-A*0201, HLA¬A*0301, HLA-A*2402, HLA-B*0702, HLA-B*0801, HLA-B*3501 representative of main HLA class I supertypes. Each tested peptide is given a score relative to a pass/fail control peptide and also compared to a positive control peptide.
(§3) Detection is based on the presence or absence of the native conformation of the MHC-peptide complex. The highly frequent HLA class I alleles (HLA-A*0201, A*0301, A*1101, A*2402, B*0702, B*0801, and B*3501) were selected. Binding to MHC molecules was compared to that of a known T-cell epitope, a positive control peptide, with very strong binding properties. […] The score of the test peptide is reported quantitatively as a percentage of the signal generated by the positive control peptide, and the peptide is indicated as having a putative pass or fail result. Good binders are considered to be those peptides with scores 45% of the positive control as defined by ProImmune.

HLA-B*0801 = HLA-B*0801 (Homo sapiens, UniProt P01889, A93T/A95T/D138N/E176V/E187T/K202T/Q94N/R180D/S35A/V36M/Y33D/Y91F); test: as above; conditions: score as % of positive control peptide
Excerpt: as §2, §3

HLA-B*0702 = target: T1, HLA-B*0702 (Homo sapiens, UniProt P01889); test: as above; conditions: score as % of positive control peptide
T1 construct: purchased ProImmune
Excerpt: as §2, §3

HLA-A*1101 = target: T2, HLA-A*1101 (Homo sapiens, UniProt P04439, A114D/D185E/E176A/F33Y/L180Q/S129P/T187R); test: as above; conditions: score as % of positive control peptide
T2 construct: purchased ProImmune
Excerpt: as §2, §3

HLA-A*0301 = target: T3, HLA-A*0301 (Homo sapiens, UniProt P04439); test: as above; conditions: score as % of positive control peptide
T3 construct: purchased ProImmune
Excerpt: as §2, §3

HLA-A*0201 = HLA-A*0201 (Homo sapiens, UniProt P04439, D140Y/D185E/D98H/E176V/E277Q/G131W/G231S/I119V/I121R/I166T/I218V/L300P/L318F/N151K/N90K/P208A/P217A/Q86G/Q94H/R138H/R169H/T345S); test: as above; conditions: score as % of positive control peptide
Excerpt: as §2, §3

HLA-A*2402 = HLA-A*2402 (Homo sapiens, UniProt P04439, D101N/D140Y/D185E/E176V/E190D/F33S/G103R/G107R/I119L/I121M/I306V/K335N/L105A/L180Q/L300P/N151K/N90K/Q86E/Q94H/R106L/R138H/R89G/T104I/T345S/V100E/W191G/Y123F); test: as above; conditions: score as % of positive control peptide
Excerpt: as §2, §3

[1] = tested on: HLA-DR3 (α1*01:01;β1*03:0); test: ProImmune REVEAL MHC class II binding assay of long peptides; parameters: species or system human; conditions: percentage of the signal of the positive control peptide; positive binding score >=15%
Excerpt: as §1

[2] = tested on: HLA-DR1 (α1*01:01;β1*01:01); test: as above; parameters: species or system human; conditions: percentage of the signal of the positive control peptide; positive binding score >=15%
Excerpt: as §1

[3] = target: T4, HLA-DR13 (α1*01:01;β1*13:01) (Homo sapiens, UniProt P01903+P01911, A100E/A169T/K41T/L162R/M171V/P40S/Q125H/Q178H/Q39Y/Q99D/R42S/S66N/W38E/Y61H); test: as above; conditions: percentage of the signal of the positive control peptide; positive binding score >=15%
T4 construct: purchased ProImmune
Excerpt: The highly frequent HLA class II alleles HLA-DR1 (α1*01:01;β1*01:01), HLA-DR15 (α1*01:01;β1*15:01), HLA-DR3 (α1*01:01;β1*03:01), HLA-DR4 (α1*01:01;β1*04:01), HLA-DR11 (α1*01:01;β1*11:01), HLA-DR13 (α1*01:01;β1*13:01), and HLA-DR7 (α1*01:01;β1*07:01) were selected. Each peptide was given a score relative to the positive control peptide, which is a known T-cell epitope.

[4] = target: T5, HLA-DR7 (α1*01:01;β1*07:01) (Homo sapiens, UniProt P01903+P01911, A100R/A102G/A103Q/D57E/D86V/E43K/F76Y/K127E/L162R/M171V/P40G/Q125H/Q99D/R195Q/R33Q/R42Y/R54Q/S133A/S149N/S66F/T210M/V115G/Y107V/Y59L/Y89S); test: as above; conditions: percentage of the signal of the positive control peptide; positive binding score >=15%
T5 construct: purchased ProImmune
Excerpt: as §1

[5] = target: T6, HLA-DR15 (α1*01:01;β1*15:01) (Homo sapiens, UniProt P01903+P01911); test: as above; conditions: percentage of the signal of the positive control peptide; positive binding score >=15%
T6 construct: purchased ProImmune
Excerpt: as §1

HLA class I alleles = test: ProImmune REVEAL MHC class I binding assay, summary over the seven alleles; parameters: species or system human; conditions: for Number of allele (b): number of class I alleles for which positive binding was detected; for Number of HLA binders (a): total number binding epitopes detected for each long peptide, seven class I alleles
Excerpt: as §2, §3

[6] = tested on: PBMC from chronic HBV-infected subjects; test: IFNγ ELISpot of PBMC restimulated with individual unconjugated HBV long peptides (Example 5); assay type: cell-based, human; conditions: for T cell responses (IFNγ ELISpot), level and frequency of responders: HBeAg-negative inactive carriers and HBeAg-negative treated subjects, 5 μg/mL, 18 h, FIGS. 9 and 10; for T cell responses (IFNγ ELISpot) grouped by infecting HBV genotype: genotypes A, B, C & D, FIG. 11; for T cell responses (IFNγ ELISpot) grouped by ethnic background: three ethnic groups, FIG. 12
Procedure: One vial of PBMC from each subject (containing 1×10^7 cells) was thawed and lymphocyte numbers were determined using a Scepter™ automated handheld cell counter. PBMC were cultured in 2 mL culture medium (CM: RPMI-1640 Glutamax supplemented with 5% human AB serum) in 24 well cell culture plates at a concentration of 1×10^6 cells/mL for a total of 11 days. Cells were stimulated with a mixture of the nine HBV-derived long peptides described in Example 3.
Each peptide was used at a final concentration of 1 μg/peptide/mL. On Day 4, IL-2 and IL-15 were added to the cultures to final concentrations of 10 IU/mL and 10 ng/mL respectively. On Day 10, cells were washed twice in CM and cultured with 10 IU/mL IL-2 for 1 additional day. On Day 11, cells were washed twice in CM, counted and incorporated in a human IFNγ (interferon-gamma) ELISpot assay or intracellular cytokine staining.
Cells from short term cultures were plated in triplicate wells at 5×10^4 PBMC/well. Final antigen concentrations used were: 5 μg/mL for each individual peptides; PHA positive control: 1 μg/mL.

BALB/c mice = test: Immunogenicity in mice, IFNγ ELISpot of splenocytes, FP02.1 vs NP02.1 (Example 6); assay type: in vivo; conditions: mice immunised with FP02.1 or NP02.1, restimulation 5 μg/mL/peptide, FIG. 15
Procedure: The immunogenicity in mice of FP02.1 (containing nine fluorocarbon-conjugated peptides) was compared to NP02.1 (containing nine equivalent unconjugated peptides).
Alternatively, splenocytes were stimulated in vitro with 5 μg/mL/peptide of nine individual peptides for 18 hours in an ELISpot assay. The number of IFNγ+ spot forming cells (SFC) was counted. Plates then were washed with PBS, incubated with an IFNγ detection peroxidase-labelled antibody, followed by a substrate, according to the manufacturer's instructions.

T4 sequence (P01903 26-216, other chains not shown): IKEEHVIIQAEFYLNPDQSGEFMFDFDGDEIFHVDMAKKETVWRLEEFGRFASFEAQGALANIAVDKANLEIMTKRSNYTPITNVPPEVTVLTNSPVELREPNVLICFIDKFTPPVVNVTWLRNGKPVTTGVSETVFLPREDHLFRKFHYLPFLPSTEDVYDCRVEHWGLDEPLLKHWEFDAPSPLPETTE

Substance | Number of allele (a) (HLA class II alleles) | Number of nonamers having a binding score >= 45%, HLA-B*3501 (HLA-B*3501) | Number of nonamers having a binding score >= 45%, HLA-B*0801 (HLA-B*0801) | Number of nonamers having a binding score >= 45%, HLA-B*0702 (HLA-B*0702) | Number of nonamers having a binding score >= 45%, HLA-A*1101 (HLA-A*1101) | Number of nonamers having a binding score >= 45%, HLA-A*0301 (HLA-A*0301) | Number of nonamers having a binding score >= 45%, HLA-A*0201 (HLA-A*0201) | Number of nonamers having a binding score >= 45%, HLA-A*2402 (HLA-A*2402) | binding score, HLA-DR3 (α1*01:01;β1*03:0) [1] | binding score, HLA-DR1 (α1*01:01;β1*01:01) [2] | binding score, HLA-DR13 (α1*01:01;β1*13:01) [3] | binding score, HLA-DR7 (α1*01:01;β1*07:01) [4] | binding score, HLA-DR15 (α1*01:01;β1*15:01) [5] | Number of allele (b) (HLA class I alleles) | Number of HLA binders (a) (HLA class I alleles) | T cell responses (IFNγ ELISpot), level and frequency of responders [6] | T cell responses (IFNγ ELISpot) grouped by infecting HBV genotype [6] | T cell responses (IFNγ ELISpot) grouped by ethnic background [6] | IFNγ response of splenocytes to each individual peptide component (BALB/c mice) | IFNγ response of splenocytes to each individual peptide component (BALB/c mice; listed as P376)
NP277(K): unconjugated HBV long peptide, polymerase 260-293 + KKK (RVSWPKFAVPNLQSLTNLLSSNLSWLSLDVSAAFYHKKK; HBV CONSENSUS SEQUENCE) | 1 | 3 | 1 | 3 | 0 | 0 | 6 | 5 | 0.10% | 0.49% | 0.00% | 0.01% | 0.18% | 5 | 18 | – | – | – | – | –
NP376: unconjugated HBV long peptide, polymerase 359-398 (C to S substitution at 393) (KLHLYSHPIILGFRKIPMGVGLSPFLLAQFTSAISSVVRR; HBV CONSENSUS SEQUENCE) | – | 6 | 6 | 4 | 1 | 0 | 8 | 10 | 0.00% | 27.71% | 0.00% | – | 6.29% | 6 | 35 | highest level of responses in both patient populations and in the highest proportion of subjects | highest responses across all four genotypes A, B, C & D | highest responses across all three ethnic groups | immune responses were dominated by four out of the 9 peptides contained in the vaccine | only observed with the formulation containing the fluorocarbon-conjugated peptides
NP797(K): unconjugated HBV long peptide, core 780-814 (C to S at 792) + KKK | 0 | 2 | 3 | 4 | 1 | 1 | 6 | 5 | 0.00% | 0.20% | 0.00% | 0.01% | 1.14% | 7 | 22 | highest level of responses in both patient populations and in the highest proportion of subjects | highest responses across all four genotypes A, B, C & D | highest responses across all three ethnic groups | – | –
